Values quoted from earlier work as cited in patent publication US10905736B2, “Ezetimibe-associated ApoA-I mimetic peptides showing enhanced synergism” (The Regents of the University of California, priority 2016, dated 2021).

Conditions: two hours after LDLR-/- mice finished eating WD containing Tg6F; cited from earlier work

## DWLKAFYDKFFEKFKEFF [6F peptide]
  presence of intact peptide in small intestine and plasma: found in the small intestine but not in the plasma
